Reference: article PMC5774706

Biological target: human cytosolic aminopeptidase P, R535A mutant (human) (UniProt Q9NQW7)
Sequence (Q9NQW7 whole entry R535A): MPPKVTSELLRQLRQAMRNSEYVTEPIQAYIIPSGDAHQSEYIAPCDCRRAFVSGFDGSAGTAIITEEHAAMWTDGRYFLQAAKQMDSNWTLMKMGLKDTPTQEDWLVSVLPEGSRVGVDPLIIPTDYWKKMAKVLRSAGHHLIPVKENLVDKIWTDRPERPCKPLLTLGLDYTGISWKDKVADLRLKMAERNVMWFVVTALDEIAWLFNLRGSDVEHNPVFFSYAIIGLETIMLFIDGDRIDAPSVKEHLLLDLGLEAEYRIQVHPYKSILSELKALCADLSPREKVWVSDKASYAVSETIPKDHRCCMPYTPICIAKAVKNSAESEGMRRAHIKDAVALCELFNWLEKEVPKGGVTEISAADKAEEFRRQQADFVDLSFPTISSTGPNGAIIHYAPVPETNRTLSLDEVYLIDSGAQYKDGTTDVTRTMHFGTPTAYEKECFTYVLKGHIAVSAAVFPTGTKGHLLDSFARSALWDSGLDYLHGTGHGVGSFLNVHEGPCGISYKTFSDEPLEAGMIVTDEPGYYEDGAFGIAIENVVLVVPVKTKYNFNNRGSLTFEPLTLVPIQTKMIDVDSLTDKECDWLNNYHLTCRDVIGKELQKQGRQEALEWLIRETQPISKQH

Chain of bradykinin (P01042 whole entry, looked up): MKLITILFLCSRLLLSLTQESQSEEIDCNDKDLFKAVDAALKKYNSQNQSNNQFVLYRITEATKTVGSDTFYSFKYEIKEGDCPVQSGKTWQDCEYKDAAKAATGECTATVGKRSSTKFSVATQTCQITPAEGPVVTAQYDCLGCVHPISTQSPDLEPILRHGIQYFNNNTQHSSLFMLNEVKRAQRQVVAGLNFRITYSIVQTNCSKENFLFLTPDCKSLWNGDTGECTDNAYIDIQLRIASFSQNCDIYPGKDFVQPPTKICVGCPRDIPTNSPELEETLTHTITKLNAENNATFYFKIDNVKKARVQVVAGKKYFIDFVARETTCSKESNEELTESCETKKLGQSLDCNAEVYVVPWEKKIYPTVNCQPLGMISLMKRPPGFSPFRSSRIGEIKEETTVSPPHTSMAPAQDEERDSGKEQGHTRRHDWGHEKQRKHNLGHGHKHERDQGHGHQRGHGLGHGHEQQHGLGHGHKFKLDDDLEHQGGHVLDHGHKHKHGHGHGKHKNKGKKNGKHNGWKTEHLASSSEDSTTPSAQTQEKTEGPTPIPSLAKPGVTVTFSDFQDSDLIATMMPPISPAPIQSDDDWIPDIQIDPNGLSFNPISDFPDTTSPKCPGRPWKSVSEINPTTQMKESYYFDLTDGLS

Km for bradykinin of the hydrolysis catalysed by R535A hcAMPP (HPLC of des-Arg-bradykinin, 50 mM Tris-HCl pH 7.5, 37°C), with 0, 0.1, 1 and 10 mM guanidine hydrochloride: 350, 327, 144 and 163 μM: 350 μM
Substance: bradykinin (from UniProt P01042 381-389) (peptide)
